The values that follow come from PMC7703590.

The assay addresses SARS-CoV-2 RBD-Fc (SARS-CoV-2) (UniProt P0DTC2). Briefly: BLI. For orientation: Biolayer interferometry detects binding as a change in optical thickness at a sensor tip.

Substance IgG1 ab1 (antibody) yielded an avidity of 160 pM.
With IgG1 ab1 (from UniProt P01857), the off-rate (koff) (usually the rate constant with which the complex falls apart) was 4e-05 s⁻¹.
